B1: IL-10R-Ig (Fc fusion, UniProt Q13651 22-235, looked up)
chain: HGTELPSPPSVWFEAEFFHHILHWTPIPNQSESTCYEVALLRYGIESWNSISNCSQTLSYDLTAVTLDLYHSNGYRARVRAVDGSRHSNWTVTNTRFSVDEVTLTVGSVNLEIHNGFILGKIQLPRPKMAPANDTYESIFSHFREYEIAIRKVPGNFTFTHKKVKHENFSLLTSGEVGEFCVQVKPSVASRSNKGMWSKEECISLTRQYFTVTN
notes: Control; Used as supernatant of cells transfected with IL-10R-Ig fusion cDNA; The construct is not described; also called IL-10R-Ig fusion; not shown: Ig part of the control fusion is not described
B2: LICR-2-Ig (Fc fusion, murine)
chain: RPRLAPPQNVTLLSQNFSVYLTWLPGLGNPQDVTYFVAYQSSPTRRRWREVEECAGTKELLCSMMCLKKQDLYNKFKGRVRTVSPSSKSPWVESEYLDYLFEVEPAPPVLVLTQTEEILSANATYQLPPCMPPLDLKYEVAFWKEGAGNKTLFPVTPHVTPHGQPVQITLQPAASEHHCLSARTIYTFSVPKYSKFSKPTCFLLEVPEPRIPKPSTPPGSSCPPGNILGGPSVFIFPPKPKDALMISLTPKVTCVVVDVSEDDPDVHVSWFVDNKEVHTAWTQPREAQYNSTFRVVSALPIQHQDWMRGKEFKCKVNNKALPAPIERTISKPKGRAQTPQVYTIPPPREQMSKKKVSLTCLVTNFFSEAISVEWERNGELEQDYKNTPPILDSDGTYFLYSKLTVDTDSWLQGEIFTCSVVHEALHNHHTQKNLSRSPGK
notes: domain: hinge, and the CH2 and CH3 domains; Used as unpurified supernatant of transfected HEK293-EBNA cells
B3: recombinant human IL-22 (ligand, UniProt Q9GZX6 34-179, looked up)
chain: APISSHCRLDKSNFQQPYITNRTFMLAKEASLADNNTDVRLIGEKLFHGVSMSERCYLMKQVLNFTLEEVLFPQSDRFQPYMQEVVPFLARLSNRLSTCHIEGDDLHIQRNVQKLKDTVKKLGESGEIKAIGELDLLFMSLRNACI
notes: also called IL-TIF
B4: recombinant AK155 (ligand, human, UniProt Q9NPH9 22-171, looked up)
chain: KHKQSSFTKSCYPRGTLSQAVDALYIKAAWLKATIPEDRIKNIRLLKKKTKKQFMKNCQFQEQLLSFFMEDVFGQLQLQGCKKIRFVEDFHSLRQKLSHCISCASSAREMKSITRMKRIFYRIGNKGIYKAISELDILLSWIKKLLESSQ
notes: Coated on the ELISA plate; The assay paragraph says only 'recombinant AK155'

Tests used:
bovine serum albumin [1] = molecular target: T1, bovine serum albumin (bovine, UniProt P02769 25-607); test: ELISA, plate coated with BSA, 50 µl control supernatant, anti-murine Ig-peroxidase detection
T1 construct: Control coating protein; also called BSA
Method: (§1) Interaction analysis was carried out via ELISA. In brief, plates were coated with either recombinant AK155; Knappe, et al., J. Virol 74:3881-7 (2000), incorporated by reference, recombinant human IL-22, or 0.02 μg/ml of bovine serum albumin, and incubated with the test sample overnight at 4° C. The test substance, in all cases, was mixed in 20 mM Tris glycine buffer containing 30 mM NaCl, pH 9.2. After washing in PBS buffer plus Tween 20 (1×10⁻⁴ v/v), plates were blocked with PBS plus 1% BSA for 4 hours. 50 μl of supernatant derived from cells transfected with LICR-2 or with control supernatant referred to supra were added, and the plates were incubated for 2 hours, at 37° C. Bound LICR-2-Ig was detected using anti-murine Ig polyclonal antibodies coupled to peroxidase. The reaction was developed by adding 100 μl of TMB (1.25 mM), followed by 20 μl of H₂SO₄ (2M) to stop the reaction. Absorbance was measured at 450 nm.

bovine serum albumin [2] = molecular target: T1, bovine serum albumin; test: ELISA, plate coated with BSA, 50 µl supernatant, anti-murine Ig-peroxidase detection
Method: as §1

LICR-2-Ig = molecular target: B2; test: ELISA, plate coated with recombinant human IL-22, 50 µl supernatant, anti-murine Ig-peroxidase detection
Method: as §1

IL-10R-Ig [3] = molecular target: B1; test: ELISA, plate coated with recombinant human IL-22, 50 µl control supernatant, anti-murine Ig-peroxidase detection
Method: as §1

IL-10R-Ig [4] = molecular target: B1; test: ELISA, plate coated with recombinant AK155, 50 µl control supernatant, anti-murine Ig-peroxidase detection
Method: as §1

T1 sequence (P02769 25-607 limits assumed): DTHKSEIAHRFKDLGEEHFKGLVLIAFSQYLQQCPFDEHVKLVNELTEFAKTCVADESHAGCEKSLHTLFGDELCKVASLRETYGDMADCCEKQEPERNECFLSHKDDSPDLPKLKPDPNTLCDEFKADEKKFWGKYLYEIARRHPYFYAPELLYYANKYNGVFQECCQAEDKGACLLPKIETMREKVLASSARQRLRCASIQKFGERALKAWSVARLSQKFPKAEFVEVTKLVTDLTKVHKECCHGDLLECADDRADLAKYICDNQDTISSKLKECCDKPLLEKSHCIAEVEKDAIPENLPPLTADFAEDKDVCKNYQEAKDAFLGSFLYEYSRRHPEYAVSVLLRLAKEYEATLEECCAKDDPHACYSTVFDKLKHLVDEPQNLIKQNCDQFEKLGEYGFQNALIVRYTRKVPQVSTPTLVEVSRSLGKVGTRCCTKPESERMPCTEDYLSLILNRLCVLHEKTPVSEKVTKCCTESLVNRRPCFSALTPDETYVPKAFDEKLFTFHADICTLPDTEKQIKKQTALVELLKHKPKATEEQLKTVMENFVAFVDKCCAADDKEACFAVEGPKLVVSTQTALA

Binder: B1
binding result (bovine serum albumin [1]): no binding (tested: 0.02 µg/ml BSA (coating))

Binder: B2
binding result (bovine serum albumin [2]): no binding (tested: 0.02 µg/ml BSA (coating))

Binder: B3
binding result (LICR-2-Ig): no binding | binding result (IL-10R-Ig [3]): no binding

Binder: B4
binding result (IL-10R-Ig [4]): no binding
